Reference: patent US20200087367A1 (ACCELERON PHARMA, published 2020)

T1: hENG(133-346)-hFc (human, UniProt P17813 133-346)
T1 construct: HEK 293, purified; not shown: linker and human IgG1 Fc domain
T1 sequence: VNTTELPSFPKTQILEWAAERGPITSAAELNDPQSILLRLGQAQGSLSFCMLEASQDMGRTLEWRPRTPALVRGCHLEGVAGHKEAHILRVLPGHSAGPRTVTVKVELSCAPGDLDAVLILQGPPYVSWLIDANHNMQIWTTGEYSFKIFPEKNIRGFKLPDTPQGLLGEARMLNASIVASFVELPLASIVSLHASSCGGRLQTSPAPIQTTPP

T2: hENG(26-332)-hFc (human, UniProt P17813 26-332)
T2 construct: HEK 293, purified; not shown: linker and human IgG1 Fc domain
T2 sequence: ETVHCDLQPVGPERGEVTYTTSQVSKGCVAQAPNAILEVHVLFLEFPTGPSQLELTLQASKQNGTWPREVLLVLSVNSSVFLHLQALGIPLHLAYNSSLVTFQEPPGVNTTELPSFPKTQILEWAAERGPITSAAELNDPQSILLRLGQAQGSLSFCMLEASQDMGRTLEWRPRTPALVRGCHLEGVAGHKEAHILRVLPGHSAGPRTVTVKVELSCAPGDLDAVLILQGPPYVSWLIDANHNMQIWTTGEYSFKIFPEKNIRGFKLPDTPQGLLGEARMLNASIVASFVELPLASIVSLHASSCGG

T3: hENG(458-586)-hFc (human, UniProt P17813 458-586)
T3 construct: Expressed in COS cells, not purified; not shown: linker and human IgG1 Fc domain
T3 sequence: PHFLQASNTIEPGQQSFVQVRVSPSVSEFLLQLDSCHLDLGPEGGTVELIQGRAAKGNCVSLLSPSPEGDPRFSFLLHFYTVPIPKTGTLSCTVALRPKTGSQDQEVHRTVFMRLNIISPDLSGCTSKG

T4: hENG(26-257)-hFc (human, UniProt P17813 26-257)
T4 construct: HEK 293, purified; not shown: linker and human IgG1 Fc domain
T4 sequence: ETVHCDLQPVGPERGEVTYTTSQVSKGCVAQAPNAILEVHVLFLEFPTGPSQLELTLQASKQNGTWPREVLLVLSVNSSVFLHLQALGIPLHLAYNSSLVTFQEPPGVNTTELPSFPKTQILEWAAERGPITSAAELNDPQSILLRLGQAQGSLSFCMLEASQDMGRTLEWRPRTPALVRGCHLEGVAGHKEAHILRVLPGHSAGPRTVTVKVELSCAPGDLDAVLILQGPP

T5: BMP10pro(22-315)-mFc (human, UniProt O95393 22-315)
T5 construct: also called mouse Fc equivalent construct; not shown: optional linker and mouse immunoglobulin G1 Fc domain
T5 sequence: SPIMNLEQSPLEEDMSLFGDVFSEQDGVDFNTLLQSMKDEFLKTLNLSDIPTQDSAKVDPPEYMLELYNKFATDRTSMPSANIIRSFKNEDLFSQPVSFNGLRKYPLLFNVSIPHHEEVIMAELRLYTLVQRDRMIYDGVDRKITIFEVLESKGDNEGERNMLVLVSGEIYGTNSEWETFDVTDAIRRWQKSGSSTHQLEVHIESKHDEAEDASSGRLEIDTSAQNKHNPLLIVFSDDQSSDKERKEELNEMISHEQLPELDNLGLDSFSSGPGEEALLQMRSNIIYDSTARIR

T6: BMP10pro(22-312)-mFc (human, UniProt O95393 22-312)
T6 construct: also called mouse Fc equivalent construct; not shown: optional linker and mouse immunoglobulin G1 Fc domain
T6 sequence: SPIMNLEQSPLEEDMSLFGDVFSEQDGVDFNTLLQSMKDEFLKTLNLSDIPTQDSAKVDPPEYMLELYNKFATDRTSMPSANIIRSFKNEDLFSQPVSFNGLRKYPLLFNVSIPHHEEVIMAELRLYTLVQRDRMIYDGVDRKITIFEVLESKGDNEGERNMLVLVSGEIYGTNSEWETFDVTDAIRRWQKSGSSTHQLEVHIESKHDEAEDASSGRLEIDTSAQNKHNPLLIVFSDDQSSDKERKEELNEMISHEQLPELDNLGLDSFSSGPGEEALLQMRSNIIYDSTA

T7: ActRIIB-mFc (human, UniProt Q13705 20-134)
T7 sequence: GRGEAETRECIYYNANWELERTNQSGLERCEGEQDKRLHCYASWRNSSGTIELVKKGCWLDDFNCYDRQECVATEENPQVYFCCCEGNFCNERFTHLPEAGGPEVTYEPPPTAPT

T8: hENG(26-437)-hFc (human, UniProt P17813 26-437)
T8 construct: HEK 293, purified; not shown: linker and human IgG1 Fc domain
T8 sequence: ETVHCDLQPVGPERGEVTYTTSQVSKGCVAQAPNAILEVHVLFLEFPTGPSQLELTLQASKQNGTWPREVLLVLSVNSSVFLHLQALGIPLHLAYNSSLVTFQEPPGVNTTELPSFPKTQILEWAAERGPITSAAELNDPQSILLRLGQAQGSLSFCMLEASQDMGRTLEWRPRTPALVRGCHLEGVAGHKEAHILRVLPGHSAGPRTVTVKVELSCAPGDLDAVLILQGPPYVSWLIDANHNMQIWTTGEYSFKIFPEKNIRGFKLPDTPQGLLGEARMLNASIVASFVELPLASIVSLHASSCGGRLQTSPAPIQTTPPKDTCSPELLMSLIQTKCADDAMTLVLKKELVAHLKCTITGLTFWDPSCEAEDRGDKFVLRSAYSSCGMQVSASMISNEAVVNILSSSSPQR

B1: BMP10 (ligand)
chain: NAKGNYCKRTPLYIDFKEIGWDSWIIAPPGYEAYECRGVCNYPLAEHLTPTKHAIIQALVHLKNSQKASKACCVPTKLEPISILYLDKGVVTYKFKYEGMAVSECGCR
notes: also called hBMP-10; hBMP10
B2: BMP9 (ligand, human, UniProt Q9UK05 320-429, looked up)
chain: SAGAGSHCQKTSLRVNFEDIGWDSWIIAPKEYEAYECKGGCFFPLADDVTPTKHAIVQTLVHLKFPTKVGKACCVPTKLSPISVLYKDDMGVPTLKYHYEGMSVAECGCR
notes: also called hBMP-9; hBMP9

Experiments:
hENG(133-346)-hFc = molecular target: T1, hENG(133-346)-hFc; assay: SPR, captured hENG-hFc, soluble BMP10; '-' = Binding undetectable
Protocol: (§1) SPR methodology was used to screen these hENG-hFc protein variants for high-affinity binding to human BMP9 and BMP10. In these experiments, captured hENG-hFc proteins were exposed to soluble BMP9 or BMP10 at 100 nM each.

hENG(26-332)-hFc = molecular target: T2, hENG(26-332)-hFc; assay: as above
Protocol: as §1

hENG(458-586)-hFc = molecular target: T3, hENG(458-586)-hFc; assay: as above
Protocol: as §1

hENG(26-257)-hFc = molecular target: T4, hENG(26-257)-hFc; assay: as above
Protocol: as §1

BMP10pro(22-315)-mFc = molecular target: T5, BMP10pro(22-315)-mFc; assay: SPR (Biacore), BMP10pro-Fc captured by anti-Fc antibody, ligand injected
Protocol: (§2) The BMP10pro-Fc proteins were separately was captured onto the system using an anti-Fc antibody, and ligands were injected and allowed to flow over the captured receptor protein. […] The mouse Fc equivalent constructs behaved similarly. […] The affinity of BMP10pro(22-315)-hFc for BMP3b was not assessed.

BMP10pro(22-312)-mFc = molecular target: T6, BMP10pro(22-312)-mFc; assay: as above
Protocol: as §2

ActRIIB-mFc = molecular target: T7, ActRIIB-mFc; assay: SPR (Biacore), ligand amine-coupled to CM5 chip, Fc fusion injected
hENG(26-437)-hFc = molecular target: T8, hENG(26-437)-hFc; assay: SPR kinetics; HEK293-cell-derived protein
ActRIIA-mFc = molecular target: T9, ActRIIA-mFc (human, UniProt P27037 21-135); assay: SPR (Biacore), ligand amine-coupled to chip, Fc fusion injected
T9 construct: not shown: linker and mouse Fc domain
T9 sequence (P27037 21-135): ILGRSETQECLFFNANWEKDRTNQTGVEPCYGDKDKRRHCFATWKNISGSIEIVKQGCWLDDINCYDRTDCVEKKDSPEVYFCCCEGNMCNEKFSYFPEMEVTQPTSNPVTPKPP

Binder	binding result (hENG(133-346)-hFc)	binding result (hENG(26-332)-hFc)	binding result (hENG(458-586)-hFc)	binding result (hENG(26-257)-hFc)	binding result (BMP10pro(22-315)-mFc)	binding result (BMP10pro(22-312)-mFc)	binding result (ActRIIB-mFc)	Kd (hENG(26-437)-hFc)	koff (hENG(26-437)-hFc)	binding result (ActRIIA-mFc)
B1	no binding (tested: 100 nM)	no binding (tested: 100 nM)	no binding (tested: 100 nM)	no binding (tested: 100 nM)	binds	binds	binds	0.13 nM	0.0028 s⁻¹	binds
B2	–	–	–	–	binds	binds	binds	–	–	binds
